Assay results as given in patent US20040265808A1, “Genes involved in osteogenesis, and methods of use” (priority 2001, published 2004).

Assays:
C2C12 cells = experiment: Transient over-expression of candidate genes, cooperation with BMP2 by measurement of alkaline phosphatase; type: cell-based, mouse; set-up: key: +: positive or negative cooperation with BMP2; −: positive or negative cooperation with BMP2
Description: (§1) Mouse cell lines representing different stages of osteoblastic differentiation, C2C12, C2H10T1/2, ST2 and MC3T3-E1, were grown in the presence of agents capable of the induction of osteoblastic differentiation in vitro such as BMP2 and Sonic Hedgehog or in the presence of TGF beta (negative control) or with serum alone. Primary cells derived from mouse calvaria were also cultured for 0, 2, 7 14 and 21 days and RNA prepared for each time point. For example, C3H10T ½ and C2C12 can be obtained from the ATCC (Manassas, Va., USA) under the collection numbers CCL-226 and CRL-1772, respectively.
(§2) The candidates genes are cloned in expression vectors and their ability to express a protein of the expected size verified by COS cells transient transfection. The genes are then transfected in C3H10T1/2 cells and/or C2C12 cells (transient over-expression) and positive or negative cooperation with BMP2 is evaluated by the measurement of alkaline phosphatase (enzymatic assay and TaqMan) at 48 hours. Controls of positive cooperation, recombinant Sonic Hedgehog, or negative cooperation, recombinant Noggin, are included in each test.

C3H10T1/2 cells = experiment: as above; type: cell-based, mouse; set-up: key: +: positive or negative cooperation with BMP2; −: positive or negative cooperation with BMP2; conditions: alkaline phosphatase
Description: as §1, §2

B1: 68 (nucleic acid, listed as Mus musculus)
chain: CGATCGATATGGTCACCCACAGCAAGTTTCCCGCCGCCGGGATGAGCCGCCCCCTGGACACCAGCCTGCGCCTCAAGACCTTCAGCTCCAAAAGCGAGTACCAGCTGGTGGTGAACGCCGTGCGCAAGCTGCAGGAGAGCGGATTCTACTGGAGCGCCGTGACCGGCGGCGAGGCGAACCTGCTGCTCAGCGCCGAGCCCGCGGGCACCTTTCTTATCCGCGACAGCTCGGACCAGCGCCACTTCTTCACGTTGAGCGTCAAGACCCAGTCGGGGACCAAGAACCTACGCATCCAGTGTGAGGGGGGCAGCTTTTCGCTGCAGAGTGACCCCCGAAGCACGCAGCCAGTTCCCCGCTTCGACTGTGTACTCAAGCTGGTGCACCACTACATGCCGCCTCCAGGGACCCCCTCCTTTTCTTTGCCACCCACGGAACCCTCGTCCGAAGTTCCGGAGCAGCCACCTGCCCAGGCACTCCCCGGGAGTACCCCCAAGAGAGCTTACTACATCTATTCTGGGGGCGAGAAGATTCCGCTGGTACTGAGCCGACCTCTCTCCTCCAACGTGGCCACCCTCCAGCATCTTTGTCGGAAGACTGTCAACGGCCACCTGGACTCCTATGAGAAAGTGACCCAGCTGCCTGGACCCATTCGGGAGTTCCTGGATCAGTATGATGCTCCACTTGCGGCCGCTT
Which results are given for B1?
Validation in vitro (coop over BMP2) C2C12 (C2C12 cells): −; Validation in vitro (coop over BMP2) C3H10T1/2 (C3H10T1/2 cells): −
